According to the supplement of paper PMC7125110:
± gives the standard error. Fewer inactive variants are shown than the library holds.

B1: glmS ribozyme (parent)
chain: AUAAAAGCGCCAGAACUACAGAAAUGUAGUUGACGAGGAGGAGGUUUAUCGAAUUUUCGGCGGAUGCCUCCAAA

Legend:
Conditions in all cases: with glucosamine-6-phosphate
glucosamine-6-phosphate [1] = variants of: B1; assay: self-cleavage kobs at 40 uM GlcN6P; higher = faster cleavage; RNA array
Procedure, shortened: (§1)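 E. coli RNA polymerase transcribed barcoded ribozyme variants in situ on sequenced MiSeq chips, which were tracked via a hybridised Cy3 probe at 37 °C. Tiles were imaged over ~14 h after glucosamine-6-phosphate (40 μM to 10 mM) in HEPES/KCl/Mg(OAc)2 buffer was flowed in. Normalised per-tile medians were fit to one- or two-exponential decays for kobs, and kcat and KM came from weighted Michaelis–Menten fits.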

glucosamine-6-phosphate [2] = variants of: B1; assay: self-cleavage kobs at 2500 uM GlcN6P; higher = faster cleavage; RNA array
Procedure, shortened: as §1

glucosamine-6-phosphate [3] = variants of: B1; assay: self-cleavage kobs at 10000 uM GlcN6P; higher = faster cleavage; RNA array
Procedure, shortened: as §1

glucosamine-6-phosphate [4] = variants of: B1; assay: self-cleavage kobs at 160 uM GlcN6P; higher = faster cleavage; RNA array
Procedure, shortened: as §1

glucosamine-6-phosphate [5] = variants of: B1; assay: self-cleavage kobs at 640 uM GlcN6P; higher = faster cleavage; RNA array
Procedure, shortened: as §1

Variant	self-cleavage kobs at 40 uM GlcN6P (glucosamine-6-phosphate [1])	self-cleavage kobs at 2500 uM GlcN6P (glucosamine-6-phosphate [2])	self-cleavage kobs at 10000 uM GlcN6P (glucosamine-6-phosphate [3])	self-cleavage kobs at 160 uM GlcN6P (glucosamine-6-phosphate [4])	self-cleavage kobs at 640 uM GlcN6P (glucosamine-6-phosphate [5])
C10G A52G	< 1e-05 s⁻¹	< 1e-05 s⁻¹	< 1e-05 s⁻¹		
C34U A64C	< 1e-05 s⁻¹		< 1e-05 s⁻¹	< 1e-05 s⁻¹	
A12U G32U C50G	7.78e-05 ± 3.4e-05 s⁻¹				
C8G U31A U56A C70A	< 1e-05 s⁻¹		< 1e-05 s⁻¹		
G38A U47C	< 1e-05 s⁻¹	< 1e-05 s⁻¹		< 1e-05 s⁻¹	
A15G G38C	< 1e-05 s⁻¹	< 1e-05 s⁻¹		< 1e-05 s⁻¹	< 1e-05 s⁻¹
G41C G66A U69C	< 1e-05 s⁻¹			< 1e-05 s⁻¹	
G13C A15C G51U	< 1e-05 s⁻¹				
U47A U49C	< 1e-05 s⁻¹	< 1e-05 s⁻¹			< 1e-05 s⁻¹
C34G A36G G37A A42U G51C C67U	< 1e-05 s⁻¹	< 1e-05 s⁻¹			
G44U C70A	< 1e-05 s⁻¹	< 1e-05 s⁻¹	< 1e-05 s⁻¹	< 1e-05 s⁻¹	< 1e-05 s⁻¹
G32A C50U	< 1e-05 s⁻¹				< 1e-05 s⁻¹
G41C U49G A53G	< 1e-05 s⁻¹				
A14C A36G C71U	< 1e-05 s⁻¹				
A33U U49C	< 1e-05 s⁻¹		< 1e-05 s⁻¹	< 1e-05 s⁻¹	< 1e-05 s⁻¹
A6C A52C	< 1e-05 s⁻¹	< 1e-05 s⁻¹	< 1e-05 s⁻¹	< 1e-05 s⁻¹	< 1e-05 s⁻¹
U47A C50G C68A	0.000209 ± 7.9e-05 s⁻¹		0.000323 ± 6.5e-05 s⁻¹		
C34G C50U	< 1e-05 s⁻¹		< 1e-05 s⁻¹		< 1e-05 s⁻¹
C8U A33C C71A	< 1e-05 s⁻¹				
C16U U69C	0.000407 ± 8.8e-05 s⁻¹	0.000683 ± 0.00014 s⁻¹	0.0036 ± 0.00088 s⁻¹	0.000359 ± 9e-05 s⁻¹	0.000778 ± 0.00013 s⁻¹
G7U G62A	< 1e-05 s⁻¹	< 1e-05 s⁻¹		< 1e-05 s⁻¹	< 1e-05 s⁻¹
G7U G62C	< 1e-05 s⁻¹	< 1e-05 s⁻¹	< 1e-05 s⁻¹	< 1e-05 s⁻¹	< 1e-05 s⁻¹
A52U C61A	< 1e-05 s⁻¹		< 1e-05 s⁻¹		

Variant	self-cleavage kobs at 40 uM GlcN6P (glucosamine-6-phosphate [1])	self-cleavage kobs at 2500 uM GlcN6P (glucosamine-6-phosphate [2])	self-cleavage kobs at 10000 uM GlcN6P (glucosamine-6-phosphate [3])	self-cleavage kobs at 160 uM GlcN6P (glucosamine-6-phosphate [4])	self-cleavage kobs at 640 uM GlcN6P (glucosamine-6-phosphate [5])
G29A C34A	< 1e-05 s⁻¹	< 1e-05 s⁻¹	< 1e-05 s⁻¹	< 1e-05 s⁻¹	< 1e-05 s⁻¹
G32A G41C	< 1e-05 s⁻¹		3.31e-05 ± 8.8e-06 s⁻¹		< 1e-05 s⁻¹
C10G A14C	< 1e-05 s⁻¹		< 1e-05 s⁻¹		
C34A U56A	< 1e-05 s⁻¹	< 1e-05 s⁻¹		< 1e-05 s⁻¹	< 1e-05 s⁻¹
G29U C50G G60U C67A	9.35e-05 ± 1.9e-05 s⁻¹		0.000133 ± 3e-05 s⁻¹		
G7U G37A	< 1e-05 s⁻¹		< 1e-05 s⁻¹		
G9A A14G G32U U65A	< 1e-05 s⁻¹	< 1e-05 s⁻¹	< 1e-05 s⁻¹		
A53G C71G	0.000153 ± 2e-05 s⁻¹	0.00062 ± 0.00013 s⁻¹			0.000377 ± 5.8e-05 s⁻¹
U46G U56A	5.1e-05 ± 7.3e-06 s⁻¹		0.00224 ± 0.00042 s⁻¹		0.000601 ± 0.00017 s⁻¹
G43A G62C U65C C68G	< 1e-05 s⁻¹				
C8G G9A G29U U56A A64G C70A	< 1e-05 s⁻¹				
A14C G40U U46C C68U	< 1e-05 s⁻¹				
A15C G35U A36G U65C C68A	< 1e-05 s⁻¹		< 1e-05 s⁻¹		
U56C G62U	< 1e-05 s⁻¹		< 1e-05 s⁻¹		
A33U A48G A53U U57C	< 1e-05 s⁻¹		< 1e-05 s⁻¹		
G13C G59C	< 1e-05 s⁻¹		< 1e-05 s⁻¹	< 1e-05 s⁻¹	< 1e-05 s⁻¹
G7C G13U A33G U45G	< 1e-05 s⁻¹				
G9U G13C	< 1e-05 s⁻¹		< 1e-05 s⁻¹	< 1e-05 s⁻¹	< 1e-05 s⁻¹
U31A C50G C58A	5.39e-05 ± 1.9e-05 s⁻¹	0.000414 ± 0.00012 s⁻¹			0.00134 ± 0.00032 s⁻¹
U47A C58U	< 1e-05 s⁻¹		6e-05 ± 2.1e-05 s⁻¹		
G59A C68U U69G	< 1e-05 s⁻¹				
U54G U55G	0.00108 ± 0.00018 s⁻¹	0.0105 ± 0.0029 s⁻¹		0.00148 ± 0.00028 s⁻¹	0.00673 ± 0.0015 s⁻¹
G13U G37A	< 1e-05 s⁻¹		6.96e-05 ± 8.5e-06 s⁻¹	< 1e-05 s⁻¹	

Variant	self-cleavage kobs at 40 uM GlcN6P (glucosamine-6-phosphate [1])	self-cleavage kobs at 2500 uM GlcN6P (glucosamine-6-phosphate [2])	self-cleavage kobs at 10000 uM GlcN6P (glucosamine-6-phosphate [3])	self-cleavage kobs at 160 uM GlcN6P (glucosamine-6-phosphate [4])	self-cleavage kobs at 640 uM GlcN6P (glucosamine-6-phosphate [5])
A6G U57A	< 1e-05 s⁻¹			< 1e-05 s⁻¹	< 1e-05 s⁻¹
C8A C11U G38C C50U	< 1e-05 s⁻¹	< 1e-05 s⁻¹			< 1e-05 s⁻¹
G35U G60C	< 1e-05 s⁻¹	< 1e-05 s⁻¹	< 1e-05 s⁻¹	< 1e-05 s⁻¹	< 1e-05 s⁻¹
G7U C58G C68G	0.000149 ± 4.5e-05 s⁻¹	0.00158 ± 0.00066 s⁻¹	0.000116 ± 2.5e-05 s⁻¹	0.000633 ± 0.00028 s⁻¹	0.00042 ± 0.00015 s⁻¹
A53U C71G	9.68e-05 ± 1.3e-05 s⁻¹	0.000247 ± 5.4e-05 s⁻¹	0.00158 ± 0.00036 s⁻¹	0.000213 ± 7e-05 s⁻¹	0.000283 ± 4.7e-05 s⁻¹
A53U C71U	0.000617 ± 6e-05 s⁻¹	0.0165 ± 0.0031 s⁻¹	0.0301 ± 0.0058 s⁻¹	0.00115 ± 0.0002 s⁻¹	0.00728 ± 0.0012 s⁻¹
G40A A48C U57A C61G	< 1e-05 s⁻¹	< 1e-05 s⁻¹			
G13C A48U C70G	< 1e-05 s⁻¹		< 1e-05 s⁻¹		
C8G C67U	< 1e-05 s⁻¹	< 1e-05 s⁻¹		< 1e-05 s⁻¹	< 1e-05 s⁻¹
A6C G35U G38A G43U U54G C67U	< 1e-05 s⁻¹	< 1e-05 s⁻¹	< 1e-05 s⁻¹		
A6C C50A	< 1e-05 s⁻¹		< 1e-05 s⁻¹		
G40U A48G G63U	< 1e-05 s⁻¹		< 1e-05 s⁻¹	< 1e-05 s⁻¹	< 1e-05 s⁻¹
G7A C34G U56C	< 1e-05 s⁻¹				
G13C G62A	< 1e-05 s⁻¹	< 1e-05 s⁻¹			
C16G A42U	< 1e-05 s⁻¹			< 1e-05 s⁻¹	
G29U U30G U54A	9.91e-05 ± 2.6e-05 s⁻¹		0.00383 ± 0.00068 s⁻¹		
A33G C58U	< 1e-05 s⁻¹	< 1e-05 s⁻¹	< 1e-05 s⁻¹		
G35A C68A	< 1e-05 s⁻¹	< 1e-05 s⁻¹		< 1e-05 s⁻¹	< 1e-05 s⁻¹
C8G A12C A15G U30G G38A U46C	< 1e-05 s⁻¹		< 1e-05 s⁻¹		
A48C U69G C70U	< 1e-05 s⁻¹	< 1e-05 s⁻¹	< 1e-05 s⁻¹		
C11A A48U A52U	< 1e-05 s⁻¹		< 1e-05 s⁻¹		
G38U U47G C70G	0.000113 ± 3.3e-05 s⁻¹		9.01e-05 ± 2.3e-05 s⁻¹		
C11A C68A	< 1e-05 s⁻¹				

Variant	self-cleavage kobs at 40 uM GlcN6P (glucosamine-6-phosphate [1])	self-cleavage kobs at 2500 uM GlcN6P (glucosamine-6-phosphate [2])	self-cleavage kobs at 10000 uM GlcN6P (glucosamine-6-phosphate [3])	self-cleavage kobs at 160 uM GlcN6P (glucosamine-6-phosphate [4])	self-cleavage kobs at 640 uM GlcN6P (glucosamine-6-phosphate [5])
C16G G44U	< 1e-05 s⁻¹		2.26e-05 ± 1e-05 s⁻¹	< 1e-05 s⁻¹	
C11G G60C	< 1e-05 s⁻¹		< 1e-05 s⁻¹	< 1e-05 s⁻¹	< 1e-05 s⁻¹
G43C A53C U56C	< 1e-05 s⁻¹	< 1e-05 s⁻¹	< 1e-05 s⁻¹	< 1e-05 s⁻¹	
U47C G59U C70A	< 1e-05 s⁻¹				
G35A G66U	< 1e-05 s⁻¹			< 1e-05 s⁻¹	
C16U U31C G35A G41A G62U	< 1e-05 s⁻¹				< 1e-05 s⁻¹
G37U A48U C68A	< 1e-05 s⁻¹		< 1e-05 s⁻¹		
A39G G60U	< 1e-05 s⁻¹			< 1e-05 s⁻¹	< 1e-05 s⁻¹
G60C C61A	< 1e-05 s⁻¹		< 1e-05 s⁻¹	< 1e-05 s⁻¹	< 1e-05 s⁻¹
C34U A42C	< 1e-05 s⁻¹	< 1e-05 s⁻¹	< 1e-05 s⁻¹		< 1e-05 s⁻¹
C8G G38C C50A G66U	< 1e-05 s⁻¹	< 1e-05 s⁻¹		< 1e-05 s⁻¹	< 1e-05 s⁻¹
A39C U49C	< 1e-05 s⁻¹		< 1e-05 s⁻¹	< 1e-05 s⁻¹	
A1C	0.00111 ± 0.00028 s⁻¹	0.0128 ± 0.0042 s⁻¹	0.0709 ± 0.033 s⁻¹	0.00363 ± 0.00095 s⁻¹	0.0192 ± 0.0042 s⁻¹
C11A C50A C68G	5.45e-05 ± 1.8e-05 s⁻¹	6.2e-05 ± 2.5e-05 s⁻¹	3.73e-05 ± 1.7e-05 s⁻¹	0.000352 ± 0.0001 s⁻¹	0.000154 ± 5.6e-05 s⁻¹
G35U A39G	< 1e-05 s⁻¹	< 1e-05 s⁻¹	< 1e-05 s⁻¹	< 1e-05 s⁻¹	< 1e-05 s⁻¹
A36U U54C	< 1e-05 s⁻¹			< 1e-05 s⁻¹	< 1e-05 s⁻¹
G13U U31C A33C A48C A52C U56G	< 1e-05 s⁻¹				
C8U A15G G38U C61G C68G	0.00048 ± 0.00015 s⁻¹		0.000181 ± 4.8e-05 s⁻¹		
G38U G63U	< 1e-05 s⁻¹	< 1e-05 s⁻¹	< 1e-05 s⁻¹		
A14U G35C A42C	< 1e-05 s⁻¹			< 1e-05 s⁻¹	
G41U U46G C67U	< 1e-05 s⁻¹			< 1e-05 s⁻¹	< 1e-05 s⁻¹
A39G C68G	2.98e-05 ± 1.4e-05 s⁻¹	0.000286 ± 4.7e-05 s⁻¹	0.000116 ± 1.2e-05 s⁻¹	6.43e-05 ± 1.3e-05 s⁻¹	0.000165 ± 5e-05 s⁻¹
